The target in this test is biotinylated eLtaS protein (extracellular domain of LtaS of S. aureus) (S. aureus 8325-4) (UniProt Q2G093). Nature of the test: SPR; biotinylated eLtaS immobilised on Sensor Chip SA; C3 and C3b injected at 300, 100, 30, 10 ug/ml; global kinetic fit.

This passage reports Kd, koff and kon results from article PMC4657049.

Sequence of UniProt Q2G093 (Q2G093 whole entry, the tested form may be a part): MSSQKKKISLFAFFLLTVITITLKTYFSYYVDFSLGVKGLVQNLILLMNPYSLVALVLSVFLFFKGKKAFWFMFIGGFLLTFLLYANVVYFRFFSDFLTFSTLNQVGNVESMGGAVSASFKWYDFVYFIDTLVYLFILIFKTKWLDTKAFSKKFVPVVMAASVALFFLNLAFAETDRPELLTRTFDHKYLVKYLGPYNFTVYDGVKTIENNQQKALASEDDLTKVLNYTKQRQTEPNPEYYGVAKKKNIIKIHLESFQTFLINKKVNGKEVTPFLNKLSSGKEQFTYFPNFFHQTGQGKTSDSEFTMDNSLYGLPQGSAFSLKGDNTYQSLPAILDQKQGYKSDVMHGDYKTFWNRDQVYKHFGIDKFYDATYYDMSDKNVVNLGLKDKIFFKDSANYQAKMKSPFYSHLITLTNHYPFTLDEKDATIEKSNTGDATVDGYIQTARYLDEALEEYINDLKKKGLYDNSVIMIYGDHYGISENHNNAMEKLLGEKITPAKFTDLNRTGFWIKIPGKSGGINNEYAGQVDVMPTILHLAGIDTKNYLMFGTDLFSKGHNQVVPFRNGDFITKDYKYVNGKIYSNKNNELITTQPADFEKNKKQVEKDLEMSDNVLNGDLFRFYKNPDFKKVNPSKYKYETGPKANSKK

In the case of “human complement C3 (from UniProt P01024 23-667; P01024 672-1663) (natural protein)”, the Kd (usually the free concentration of one partner at which half of the binding sites on the other are occupied at equilibrium, for simple one-to-one binding) came to 0.687 nM; the off-rate (koff) (as a rule, a measure of how fast the partners let go of each other) worked out at 0.00149 s⁻¹; the kon (commonly the second-order rate constant of association) turned out to be 2.17e+06 M⁻¹ s⁻¹.

As for “human complement C3b (from UniProt P01024 23-667; P01024 749-1663) (domain or fragment)”, the Kd is 0.546 nM, the koff was 0.00198 s⁻¹ and the kon amounted to 3.63e+06 M⁻¹ s⁻¹.
